Drawing on a protein production outcome set (Wang et al. 2014), this text covers protein production for 12 sequences.

The nature of this data set: label from the status in PepcDB records.
For the sequence “MKSEMVLSFMATLAQEESHTKSEIMNASIEMRFRRGIFLTPTLLGYDHDEDGNLVVNEGEAKIVRLIFMMYLNGCTCQEIADTMTELGCETKKGNTVWSPGSILQILQNERHCGDVLARKTYTPNYLNHKSKKNMQNRPQYRKRNHHEAIISRDDFIAVQRLISNAKYGNKGILPELKVISNGVLKGFVSINPRWAGFKENDYISASLSVYDQMEQLSPSASSVEVQSGDFDLRGYEIARSQFFDGTDRITVTFSLNDIKFSTAAVRKLNSTLVELLLHPNKHLFAVRTASQAHRNAMQWAKKRGELSVPRAVSGTAFMPTVYALLGWNTDCRYRITGIRRGNGNDAVLLFNLEETEIFIPSDVIDEQQTSDARTDVKPFTDNQKKNVRAYPPDWADTFGSNYYCHAQAHELAGFNSRDVISNEAVAYKDSDIQVTSPDEVEKNIEQLMSDMKENSNELEHHHHHH”, the protein production entry is “failed”.
As for “MVETLPALEIGEDERLDLENLATGAFFPVKGFMTREEALSVAHEMRLPTGEVWTIPILLQFREKPRVGPGNTVALLHGGERVALLHVAEAYELDLEALARAVFGTDSETHPGVARLYGKGPYALAGRVEVLKPRPRTPLEKTPEEVRAFFRQRGWRKVVAFQTRNAPHRAHEYLIRLGLELADGVLVHPILGAKKPDDFPTEVIVEAYQALIRDFLPQERVAFFGLATPMRYAGPKEAVFHALVRKNFGATHFLVGRDHAGVGDFYDPYAAHRIFDRLPPLGIEIVKVGAVFHCPLCGGIASERTCPEGHREKRTAISMTKVRALLREGKAPPSELVRPELLPILRRGV”, the protein production entry was “not failed”.
Turning to “MNDADSLQDYQRVRQQAIRSLFEIVEGSSEGTVIVDREARIVWINQRYAQRFGLADPAQAIGRPCESVIPGSLLREVVGSGKPILLDMMDSAKDPLVVMRLPIHDDAGEVIGAIGFALLDELRSLSPLVTRYLSMQRELASTRSQLQARQAKYSFSHFVGTSPVSLEVKRRARRGAASEAPVLLLGETGTGKELLAHAIHSASPRAHKAFVSVNAAAIPESLLEAEFFGTAPGAFTGAERKGRPGKLQVAQGGTLFLDEIGDMPLALQGKLLRVLQEKEFEAVGSNEVIRSDIRLVAATSIDLQQAMREGRFRADLYYRLNVLPIEIPPLRQRLDDLPALCESILDSLDHGRLHELGGDALALLARHAWPGNVRELRNVLERALLLADQRLLDAAALGAALGPLQPLPELPRAADDRPVGDFQQAREAFERDLIGRALAQSAGNVVEAAKRLGLGRSTLYKKIVALGMRLDSGTRLEIETN”, the protein production entry is reported as “failed”.
Take “MVRKQKRARLIYNPTSGQEIMKKNVAEVLDILESFGYETSAFQTTPRADSAKNEAARASQAGFDLVIAAGGDGTINEVVSGIAPLKRRPKVAIIPTGTTNDFARALKIPRGNPVEATKLIGKNQTIHMDIGRAYNDKYFINIAAAGSLTELTYSVPSQLKTMFGYLAYLVKGAELLPRVRNVPVKVFYDHGVFEGEASMIFVALTNSVGGFETIAPDAKLDDGKFTLILVKTANLFELTDLIRLVLTGGRHINHKKIEYIKTSYLKIIPQGNPPKRMMINLDGEYGGDAPIELRNLKNHIEFFANTDEISDDAITLDTEELVLEAIAQKFAREAESLDEMDKTKEQD”: the protein production entry is reported as “not failed”.
For “MGKYTSEHHKDSRIVQLFQDGQYFYHKGLKAYRERNLSRASKLIQRAIFLEPENTGMLSQLAVIYTEMGFYQQSNELLDFILKNINEKMTECYYFKANNYAHLGLFQEAYKAAETYLKEDPDGEFSEENAELLDLLDMGEEDQGYSQFDQDDLILKQDRAKSLLENGQLQESIAMLEEIISDYPEFWSAYNNLALAYFYAGDVQKAKTTVFTVLEKSHGNLHALCNLLIFYHYERRDDKVEALSEQLSNIYPMLFEQRYKLGATLALVGRYDLGFKWLKSLYRMGFEGDETFYYWLACSAYYTGRVQFARSVWKKMQEEYPDDARMEPWKERKEKRPVQRPLEERLAAYYISGRKGEKAQLKAVLDSQMAKTPFEDQFVRLVLYGESGAAVDSKDALLAYRTAKAIEQADQSAMEQEAMCFWIFHVIQQIRAYGLQLKNAGGLAAAIYYIWKTEHQERLTKAETAKIFQISPGTLSKYERTLKEHL”, the protein production entry was “failed”.
The value for “MGQELLVRAHEPETADIEIIPVTTVVQVTEQNSTGDAAVALDTVTVVGERYVDDIVATLTTLRVGMAVLLQRESGNQYDDNAISVWTLQHAKLGYIARYQNQPYATLMDQGQRLYGIVTVLDQQKQHLELMLWRTTAVPSPIEALEHHHHHH” was “failed”; that for “MFKITPFSTQQHVIIQITDTHLLEDPQQEFVGINPERSFHCVMQHIRQHHAQIDAIIHTGDLAQTPTPATYARYLDFMQSFGVPFFHVPGNHDHPEFFPFHQASPSELSIVVLGNWHVILMNSAVVGQVDGWINDQQIQQLRDHLAAHPDTPTIVACHHHPFDMHSKWIDQHKLKNTPDLLATFKHYPQIRAVLCGHVHQESLHRWEHIDFLSSPSTSVQFKPRSDEFAFDTLPSGYRILRLNSDGQFDSNIHRIENMLQNINTEISGY” was “failed”.
For “YQAIYRRATTYLAMGRGKAAIVDLERVLELKPDFYGARIQRGNILLKQGELEAAEADFNIVLNHDSSN” the value was “failed”.
Turning to “MSKDFDLIIRNAYLSEKDSVYDIGIVGDRIIKIEAKIEGTVKDEIDAKGNLVSPGFVDAHTHMDKSFTSTGERLPKFWSRPYTRDAAIEDGLKYYKNATHEEIKRHVIEHAHMQVLHGTLYTRTHVDVDSVAKTKAVEAVLEAKEELKDLIDIQVVAFAQSGFFVDLESESLIRKSLDMGCDLVGGVDPATRENNVEGSLDLCFKLAKEYDVDIDYHIHDIGTVGVYSINRLAQKTIENGYKGRVTTSHAWCFADAPSEWLDEAIPLYKDSGMKFVTCFSSTPPTMPVIKLLEAGINLGCASDNIRDFWVPFGNGDMVQGALIETQRLELKTNRDLGLIWKMITSEGARVLGIEKNYGIEVGKKADLVVLNSLSPQWAIIDQAKRLCVIKNGRIIVKDEVIVA”, the protein production result is listed as “not failed”.
The value for “MLYLAELLQGKNALITGAGRGIGRAVAIALAKEGVNVGLLARSEENLKAVAKEVEAEGVKAVIATADVSSYEEVTTAIETLKNGLGSIDILINNAGISKFGKFLELDVADWEKIIQVNLMGVYYATRAALPSMIEQQSGDIINISSTAGQKGAPVTSAYSASKFGVLGLTESLAMEVRKHNIRVTALTPSTVATDMAVDLGLTDGNPDKVMQAEDIAEFIVAQLKLNKRTFIKSAGLWSTNP” was “failed”; that for “MIIEYNKLGTILYSRISHKQLYNIFHYSYHEVRLLVYNKYLPIPKQFNDEFWTVEKVEHIRYLSLTGKPYKIFNEDMNSLRVLDKVRFKLDKATSISLTPKANLELEFSGIYMKSPLYLGDMSYGALSGNPNIAIATAADLTETLAGTGEGGLHPEVAKHKRIFVQWASARFGVDIRVLTAGMGVVIKIGQGAKPGIGGHLPGNKVTEPISLTRRIPIGIDAISPAPHHDIYSIEDLGQRIEALKEATGRPVFVKVAATNYIPYIVSGIARMGADGVIIDGHGAGTGATPVVIRDNVGIPIELAIASADKILRREGLRDKFTIIAAGRVSSATDAAKLFALGADIVSVGTGALIAMGCVMVHKCHVGSCPTGLTAKIDGTRVVDTEFGVKMLVNFINGFSLELANILDNLGLNNIRELRGRRDLLYGHGLSKDTLETLGIDGTEDEANPKLGELWNRRIIAYMHELMNKGNPVITSMGSTAPPDVEKPARIIDWLRSDGAQVTRPSIDPYREDVDTSFYLKGGEIYLSLPIIFDITEAPLEYKEAFSWSALALSSAVFDYETIDKYAEVFISSDGRGIARWSRNEIYENSYLLIPADENVIDEVIGMGVQGFIIDEDSGNSDLELVVSALDTKLKEVGVRNHYDILAKSSRLRHSADAFKLILLGADSVIMPYFILEKAIGEGNKGNLKEKAFSLITGMKKEIALLAGAAGVYSVQSTLTGNRELLRSINLNHSIRKALRIKPAGSL” was “failed”; that for “MTRIAIVGAGPAGLSLAYFLKGSRKVEATVYESMPEPGLKPCAWGLITGIENIIPIPNETIISEIRGFRIYLDNKLVFDIRTDNKLGYIIDKPLFLKRLSQEVNVEFNSKVVKKDDKYYINDKSLDHDKVIFATGHYSVSKSMSIPAIQYITDYEIDKEVVEFYFYSGFLGYAWVFPDREGSKIGIGGYAEVPELKERLKQILKGRIRTFHGARVTDYGVIEDRLDGNYTGEALGTVYAITGEGIRPSIISSKILADSILNRKDFKKEFKKSKLYWSLNWHAKIIKMTKENDPGTARLSKALLNNDPQLILKFAIGEFNRVDLIKIFGRSLILEHHHHHH” was “not failed”.
